# Paper doi:10.1101/2022.08.19.504472
# What was measured:
# [1] = biological target: FITC-labeled RLAAK peptide; assay: fluorescence polarisation
# [2] = biological target: FITC-labeled RDAAK peptide; assay: fluorescence polarisation
Substance,Kd [1],Kd [2]
His-MBP-OsPRT6-UBR 136H mutant (domain or fragment),58.9 µM,–
His-MBP-OsPRT6-UBR wild type (domain or fragment),25.8 µM,137 µM
His-MBP-OsPRT6-UBR 161V mutant (domain or fragment),41.4 µM,–
His-MBP-OsPRT6-UBR 136H+161V double mutant (domain or fragment),709 µM,–
